From the nanobody polyreactivity screen of Harvey et al. (2022)

Test: yeast display, Sf9 membrane polyspecificity reagent, FACS + sequencing; frameworks hold sequencing errors
Summary of the method: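 Using colony PCR, genes from sorted yeast display clones were amplified, then sequenced on MiSeq at 2 × 250 and filtered by CDR length. The clones had been stained with 10% biotinylated, detergent-solubilized Sf9 membrane reagent for 1 hour at 4 °C and sorted by FACS into low and high (top ~1%) gates on anti-HA and streptavidin fluorescence. Polyreactivity labels come from the gate of origin.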

Row | Sequence | polyreactivity (PSR sort gate)
1 | QVQLVESGGGLVQAGGSLRLSCAASGSTFVDYALGWARQAPGKERELVAAISSSGGSTYYADSVKGRFTISRDTAKNTVYLQMNSLKPEDTAVYYCAARYDRSSKRNYWGQGTQVTVSS | low polyreactivity
2 | QVQLVESGGGLVQAGGSLRLSCAASGSTFVDYAMGWYRQAPGKERELVAAMSSSGGSTYYADSVKGRFTISRDNAKNTVYLQMNSLKPEDTAVYYCAARYDRSSKRNYWGQGTQVTVSS | low polyreactivity
3 | QVQLVESGGGLVQAGGSLRLSCAASGSTFVFYAMGWSREAPGKERELVAAITISGDITYYADSVKGRFTISRDNAKNTVYLQMNSLKPEDTAVYYWAVDGPIPDLHEYWGQGTQVTVSS | low polyreactivity
4 | QVQLVESGGGLVQAGGSLRLSCAASGSTFVFYAMGWYRLAPGKDRELVAINSGGSTYYADSVKGRFTISRDNAKNTVYLQMNSLKPEDTAVYFCAKDPLRVWRFDYWGQGTQVTVSS | low polyreactivity
5 | QVQLVESGGGLVQAGGSLRLSCAASGSTFVFYAMGWYRQAPGKERELVASISFRGGSTRYADSVKGRFTISRDNAKNTVYLQMNSLKPEDTAVYYCNARPFYRYYYWGQGTQVTVSS | high polyreactivity
6 | QVQLVESGGGLVQAGGSLRLSCAASGSTFVGNAMGWYRQAPGKERELVAGISSGGSSNYADSVKGRFTISRDNAKNTVYLQMNSLKREDTAVYYCNAVPGVGEMDYWGQGTQVTVSS | low polyreactivity
7 | QVQLVESGGGLVQAGGSLRLSCAASGSTFVGYAMGWYRLAPGKEREFVAAITRGGSTNYADSVKGRFTISRDNAKNTVYLQMNSLKPEDTAVYYCAARDRREGFNFDYCGQGTQVTVSS | low polyreactivity
8 | QVQLVESGGGLVQAGGSLRLSCAASGSTFVGYAMVWYRQAPGKERELVAAISRSGGSTYYADSVKGRFTISRDNAKNTVYLQMNSLKPEDTAVYYCAAGARAFDDDFWGQGTQVNVSS | low polyreactivity
9 | QVQLVESGGGLVQAGGSLRLSCAASGSTFVHYAMGWYRQAPGKERELVADITTGDITNYADSVKGRFTISRDNAKNTVYLQMNSLKPEDTAVYYCAVDHQNSPFHVGRDEYWGQGTQVTVSS | low polyreactivity
10 | QVQLVESGGGLVQAGGSLRLSCAASGSTFVIYAMGLYTQAPGKERELVAAISRRTGSTYYADSVKGRFTISRYNAKNTVYLQMNSLKPEDTAVYYCAADYRYYTKYYGYLTYYYWGQGTQVTVSS | high polyreactivity
11 | QVQLVESGGGLVQAGGSLRLSCAASGSTFVIYGKGWYRQAPGKERELVASISGSGGSTFYADSVKGRFTISRDNAKITVYLEMNSRKPEDTAVYYCAAAVGVGRSGGTYDYWGQGTQVTVSS | low polyreactivity
12 | QVQLVESGGGLVQAGGSLRLSCAASGSTFVKYDMGWYRQAPGKERELVAAITTTGGSTYYADSVKGRFTISRDNAKNTVYLQMNSLIPEDTAVYYCATLVSASRSRRFGYEYWGQGTQVTVSS | high polyreactivity
13 | QVQLVESGGGLVQAGGSLRLSCAASGSTFVLYAMGWYRQAPGKERELVAAINSAGSTNYADSVKGRFTISRDNAKNTVYLQMNSLNPEDTAVYYCAAEYYYSYVDRTYYIYDYWGQGTQVTVSS | high polyreactivity
14 | QVQLVESGGGLVQAGGSLRLSCAASGSTFVNNAMGWSREARGKERELVAAIRSSDGRTYYADSVKGRFTISRDKAKNTVYLQMNSLKPEDTAVDYCATAVGTKYRTRIFEYYYWGQGTQVTVSS | high polyreactivity
15 | QVQLVESGGGLVQAGGSLRLSCAASGSTFVNNAMGWYRQAPGKERELVASITVGGSTYYADSVKGRFTISRDNAKNTVYLQMNSLKPEDTAVYYCNVQYSYYASDYDYWGQGTQVTVSS | low polyreactivity
16 | QVQLVESGGGLVQAGGSLRLSCAASGSTFVNYAMGWYRQAPGKERELVAAITRSGGNTYYADSVKGRFTISRDNAKNTVYLQMNSLKPEDTAVYDCAASFKQDIWYYYWGQGTQVTVSS | high polyreactivity
17 | QVQLVESGGGLVQAGGSLRLSCAASGSTFVPKDMGWNRQAPGKERELVAAISYSGGSTYYADSVKGRFTISRDNAKNTVYLQLNSLKPEDTAVDYCNAEGWYYLTEYGYWGQGTQVTVSS | low polyreactivity
18 | QVQLVESGGGLVQAGGSLRLSCAASGSTFVPNAMGWYRQAPGKERELVAALTFSGGTTYYADSVKGRFTISRDNAKNTVYLQMNSLKPEGTAVYYCAADYFSNLWWSGHAWRYYYWGQGTQVTVSS | low polyreactivity
19 | QVQLVESGGGLVQAGGSLRLSCAASGSTFVPNTMGWYRQAPGKERELVAAITYSGGSTYYADSVKGRFTISRDNAKNTVYLQMNSLKPEDTAVYYCAAEGTTWYYDMDYWGQGTQVTVSS | low polyreactivity
20 | QVQLVESGGGLVQAGGSLRLSCAASGSTFVPYALGWYRQAPGKERELVAAITTSGGNTYYADSVKGRFTISRDNAKNTVYLQMNSLKPEDTAVYYCAADTFRRFDYWGQGTQVTVSS | low polyreactivity
21 | QVQLVESGGGLVQAGGSLRLSCAASGSTFVPYAMGWSSQAPGKERELVADISWSGGSTYYADSVKVRFTISRDNAKNTVYLQMNSLKPEDTAVYYCAARSIYKSKYDYWGQGTQVTVSS | high polyreactivity
22 | QVQLVESGGGLVQAGGSLRLSCAASGSTFVPYAMGWYRQAPGKERELVAAISGTGGRTSYADSVKGRFTISRDNAKNTVYLQMNSLKPEDTAVYYCAAADGIYARYFFSRFPRFDYWGQGTQVTVSS | low polyreactivity

Row | Sequence | polyreactivity (PSR sort gate)
23 | QVQLVESGGGLVQAGGSLRLSCAASGSTFVPYAMGWYRQAPGKERELVAGITFSGGSTYYADSVKGRFTIPRDNAKNTVYLQMNSLKPEDTAVYYCARAGGYPLSRYGYWGQGTQVTVSS | high polyreactivity
24 | QVQLVESGGGLVQAGGSLRLSCAASGSTFVPYAMGWYRQAPGKERELVAVITRGSTNYADSVKGRFTISRDNAKNTVYLQMNRLKPEDTAVYYCAVDVARGVLDYSFDSWGQGTQVTVSS | high polyreactivity
25 | QVQLVESGGGLVQAGGSLRLSCAASGSTFVQYAMGWYRQAPGKERELVAAITSGGRTNYADSVKGRFTISRDNAKYTVYLQMNSLKPEDTAVYYCAARYGSNSPRGYEYYYWGQGTQVSVSS | low polyreactivity
26 | QVQLVESGGGLVQAGGSLRLSCAASGSTFVQYAMGWYRQAPGKERELVAAITSGGRTNYADSVNGRFTISRDNAKNTVYLQMNSLKPEDTAVYYCAARYGSNSPRRYEYYYWGQGTQVTVSS | low polyreactivity
27 | QVQLVESGGGLVQAGGSLRLSCAASGSTFVQYVMGWYRQAPGKERELVAAISSSGGSTYYADSVKGRFTISRDNAKNTVYLQMNSLKPEDTAVYDCAARRLPRPWTSTSDYWGQGTQVTVSS | high polyreactivity
28 | QVQLVESGGGLVQAGGSLRLSCAASGSTFVQYVMGWYRQAPGKERELVAAISSSGGSTYYADSVKGRFTISRDNAKNTVYLQMNSLKPEDTAVYYCAAYYFVAQARYDYWGQGTQVTVSS | high polyreactivity
29 | QVQLVESGGGLVQAGGSLRLSCAASGSTFVRNAMGWYRQAPGKERELVAAISRSGGRTYYADSVKGRFTISRDNAKNTVYLQMNSLKPEDNAVYYCNAVLGYYSYDYWGQGTQVTVSS | high polyreactivity
30 | QVQLVESGGGLVQAGGSLRLSCAASGSTFVRYAMGWYRQAPGKEREFVAAISKRGGSTYYADSVKGRFTISRDIAKNTVYLQMNSLKPEDTAVYYCATYLLRDAPGLHQVGYWGQGTQVTVSS | high polyreactivity
31 | QVQLVESGGGLVQAGGSLRLSCAASGSTFVRYAMGWYRQAPGKERELVAAISKSGGSTYYADSVKGRFTISRDNAKNTVYLQMNSLKPEDTAVYYCNADVYKNSKFRIMGYWGQGTQVTVSS | high polyreactivity
32 | QVQLVESGGGLVQAGGSLRLSCAASGSTFVRYAMGWYRQAPGKEWELVARISGRSGSTYYADSEKGRFTISRDNAKNTVYLQMNSLKPEDTAVYFCAARAWYRVYAYDVWGQGTQVTVSS | high polyreactivity
33 | QVQLVESGGGLVQAGGSLRLSCAASGSTFVRYVMGWYRQAPGKERELVAAISRRGGSTYYADSVKGRFTIARDNAKNTVYLQMNSLKPDDTAVYYCAAVYRLRGAFSRGYWGQGTQVTVSS | high polyreactivity
34 | QVQLVESGGGLVQAGGSLRLSCAASGSTFVRYVMGWYRQAPGKERELVAAISRRGGSTYYADSVKGRFTISRDHAKNTVYLQMNSLKPEDTAVYYCARTVGYRTLLESDSWGQGTQVTVSS | high polyreactivity
35 | QVQLVESGGGLVQAGGSLRLSCAASGSTFVSNAMGWYRQAPGKERELVAAISTSGGSTYYADSVKGRFTISRDNAKNTVYLQMNSLKPEDTAVYYCAKLLARGFRIWQDYDYWGQGTEVTVSS | low polyreactivity
36 | QVQLVESGGGLVQAGGSLRLSCAASGSTFVSYAMGWYRQAPGKERELVAAISWSGGSTYYADSVKGRFTISRDNAKNTVYLQMNSLKTEDTAVYYCAAELDWWYDYWGQGTQVTVSS | high polyreactivity
37 | QVQLVESGGGLVQAGGSLRLSCAASGSTFVSYAMGWYRQAPGKERELVAAITWRGDSTYYADSVKGRFTISRDNAKNTVYLQMNSLKPEDTAVYYCAADGRSWRYYSPYYYWGQGTQVTVSS | low polyreactivity
38 | QVQLVESGGGLVQAGGSLRLSCAASGSTFVSYAMGWYRQAPGKERELVAAITWRGDSTYYADSVKGRFTLSRDNAKNTVYLQMNSLKPEDTAVYYCAADGRSWRYYSPYYYWGQGTQVTVSS | low polyreactivity
39 | QVQLVESGGGLVQAGGSLRLSCAASGSTFVTYAMGWYRQAPGKEREFVAAISRTGGSTYYADSVKGRFTISRDNAKYTVYLQMNSLKPEDSAVYYCNRVGRGYSHNQYDLGYWGQGTLVTVSS | low polyreactivity
40 | QVQLVESGGGLVQAGGSLRLSCAASGSTFVTYTMGWYRQAPGKERELVAAISWSGDTTYADSVKGRFTISRDNAKNTVYLQMNSLKPEDTAVYYCAADDDWSGVEFDYWGQGTQVTVSS | low polyreactivity
41 | QVQLVESGGGLVQAGGSLRLSCAASGSTFVVNAMGCYRQAPGKERELVAAITQSGGSTFYADSVKGRFTISRDNAKNTVYLQMNSLKPEDTAVYYWGQGTQVTVSS | low polyreactivity
42 | QVQLVESGGGLVQAGGSLRLSCAASGSTFVVNAMGWYRQAPGKERELVAAIRSGSSTNYADSVKGRFTISRDNAKNTVYLQMNSLKPEDTAVYYCAARSKYTHSRQSDYWGQGTQVTVSS | low polyreactivity
43 | QVQLVESGGGLVQAGGSLRLSCAASGSTFVWKAMGWYRQAPGKERELVAAISSSGGITYYADSVKGRFTISRDNAKNPVYLQMNSLKPEDTAVYYCAAERDDDWVNYWGQGTQVTVSS | low polyreactivity
